Measurements from patent US20060121042A1 (AstraZeneca / MedImmune, published 2006).
Changes are numbered by the printed parent chain.

Columns and labels:
hEphA2 = biological target: T1, hEphA2 (human, UniProt P29317); experiment: ELISA
T1 construct: also called human EphA2

mEph A2 = mEph A2 (mouse, UniProt Q03145); experiment: ELISA
rrEphB1 = biological target: T2, rrEphB1 (rat, UniProt P09759); experiment: ELISA
T2 sequence (receptor, looked up): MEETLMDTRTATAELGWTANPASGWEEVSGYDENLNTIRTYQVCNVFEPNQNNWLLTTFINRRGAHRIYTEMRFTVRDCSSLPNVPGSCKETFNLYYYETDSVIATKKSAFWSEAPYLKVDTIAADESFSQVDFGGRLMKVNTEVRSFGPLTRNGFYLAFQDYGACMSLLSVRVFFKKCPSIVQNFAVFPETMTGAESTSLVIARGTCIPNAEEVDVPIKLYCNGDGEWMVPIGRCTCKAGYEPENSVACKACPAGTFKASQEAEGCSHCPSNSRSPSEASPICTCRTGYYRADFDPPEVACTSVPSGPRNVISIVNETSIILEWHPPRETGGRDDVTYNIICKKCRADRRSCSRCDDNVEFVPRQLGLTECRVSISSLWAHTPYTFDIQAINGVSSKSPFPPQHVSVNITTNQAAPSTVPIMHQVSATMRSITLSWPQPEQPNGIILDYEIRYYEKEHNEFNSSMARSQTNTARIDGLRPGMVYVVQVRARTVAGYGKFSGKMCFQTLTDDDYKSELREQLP

rmEph B2 = biological target: T3, rmEph B2 (mouse, UniProt P54763); experiment: ELISA
T3 sequence (receptor, looked up): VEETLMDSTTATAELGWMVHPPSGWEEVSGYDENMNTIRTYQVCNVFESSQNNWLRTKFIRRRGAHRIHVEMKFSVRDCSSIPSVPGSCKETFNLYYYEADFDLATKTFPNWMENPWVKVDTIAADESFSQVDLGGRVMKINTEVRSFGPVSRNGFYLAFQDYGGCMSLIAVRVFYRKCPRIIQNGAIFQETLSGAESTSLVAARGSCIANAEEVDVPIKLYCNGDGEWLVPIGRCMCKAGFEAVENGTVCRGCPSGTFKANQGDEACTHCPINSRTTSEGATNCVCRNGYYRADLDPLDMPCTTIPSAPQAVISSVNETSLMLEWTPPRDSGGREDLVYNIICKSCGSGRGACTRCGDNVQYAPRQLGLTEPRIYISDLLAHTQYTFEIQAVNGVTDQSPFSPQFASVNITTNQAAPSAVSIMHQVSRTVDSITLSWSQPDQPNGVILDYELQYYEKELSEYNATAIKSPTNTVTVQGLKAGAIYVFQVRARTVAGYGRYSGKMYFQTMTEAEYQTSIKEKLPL

rmEph B3 = biological target: T4, rmEph B3 (mouse, UniProt P54754); experiment: ELISA
T4 sequence (receptor, looked up): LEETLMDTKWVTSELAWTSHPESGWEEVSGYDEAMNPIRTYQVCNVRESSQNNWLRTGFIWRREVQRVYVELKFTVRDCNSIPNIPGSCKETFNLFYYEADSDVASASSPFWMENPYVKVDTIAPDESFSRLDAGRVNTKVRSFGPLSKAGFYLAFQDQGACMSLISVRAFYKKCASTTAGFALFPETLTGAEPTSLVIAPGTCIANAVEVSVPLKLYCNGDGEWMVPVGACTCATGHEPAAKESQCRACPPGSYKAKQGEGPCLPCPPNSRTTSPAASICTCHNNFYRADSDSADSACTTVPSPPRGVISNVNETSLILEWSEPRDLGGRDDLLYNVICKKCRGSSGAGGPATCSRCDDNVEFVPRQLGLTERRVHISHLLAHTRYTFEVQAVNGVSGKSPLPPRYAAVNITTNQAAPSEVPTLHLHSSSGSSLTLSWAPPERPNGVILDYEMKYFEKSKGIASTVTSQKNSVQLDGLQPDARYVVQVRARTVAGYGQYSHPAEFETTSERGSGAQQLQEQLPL

mEph A3 = biological target: T5, mEph A3 (mouse, UniProt P29319); experiment: ELISA
T5 sequence (receptor, looked up): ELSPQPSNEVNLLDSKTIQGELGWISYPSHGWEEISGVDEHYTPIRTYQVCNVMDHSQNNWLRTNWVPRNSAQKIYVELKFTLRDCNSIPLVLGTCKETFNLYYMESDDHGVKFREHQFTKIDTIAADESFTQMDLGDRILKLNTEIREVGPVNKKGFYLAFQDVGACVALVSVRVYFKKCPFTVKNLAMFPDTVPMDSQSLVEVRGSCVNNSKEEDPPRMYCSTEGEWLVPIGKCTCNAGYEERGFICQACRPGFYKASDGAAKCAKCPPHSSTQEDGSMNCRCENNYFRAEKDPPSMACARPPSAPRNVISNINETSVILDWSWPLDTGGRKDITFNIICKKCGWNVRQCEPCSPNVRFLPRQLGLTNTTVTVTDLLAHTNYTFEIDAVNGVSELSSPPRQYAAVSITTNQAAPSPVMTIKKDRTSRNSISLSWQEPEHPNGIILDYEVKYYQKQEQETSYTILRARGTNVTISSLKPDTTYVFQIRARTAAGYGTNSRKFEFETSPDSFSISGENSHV

mEph A4 = mEph A4 (mouse, UniProt Q03137); experiment: ELISA
mEph A4, sequence (Q03137 20-547 limits assumed): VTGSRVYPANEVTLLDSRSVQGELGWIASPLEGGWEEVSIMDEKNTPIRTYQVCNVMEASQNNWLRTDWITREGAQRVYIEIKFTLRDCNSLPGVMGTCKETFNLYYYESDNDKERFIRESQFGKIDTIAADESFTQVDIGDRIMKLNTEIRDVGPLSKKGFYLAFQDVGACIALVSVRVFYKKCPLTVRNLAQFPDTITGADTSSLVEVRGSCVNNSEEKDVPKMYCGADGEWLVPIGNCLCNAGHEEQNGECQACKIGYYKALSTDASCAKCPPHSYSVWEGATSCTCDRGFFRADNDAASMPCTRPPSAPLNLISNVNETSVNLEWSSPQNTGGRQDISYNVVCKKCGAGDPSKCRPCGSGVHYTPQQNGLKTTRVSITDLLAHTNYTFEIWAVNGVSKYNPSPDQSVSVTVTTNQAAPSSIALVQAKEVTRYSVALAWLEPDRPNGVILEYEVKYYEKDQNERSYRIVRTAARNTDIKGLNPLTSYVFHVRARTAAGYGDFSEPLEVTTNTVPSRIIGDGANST

mEph A7 = biological target: T6, mEph A7 (mouse, UniProt Q61772); experiment: ELISA
T6 sequence (receptor, looked up): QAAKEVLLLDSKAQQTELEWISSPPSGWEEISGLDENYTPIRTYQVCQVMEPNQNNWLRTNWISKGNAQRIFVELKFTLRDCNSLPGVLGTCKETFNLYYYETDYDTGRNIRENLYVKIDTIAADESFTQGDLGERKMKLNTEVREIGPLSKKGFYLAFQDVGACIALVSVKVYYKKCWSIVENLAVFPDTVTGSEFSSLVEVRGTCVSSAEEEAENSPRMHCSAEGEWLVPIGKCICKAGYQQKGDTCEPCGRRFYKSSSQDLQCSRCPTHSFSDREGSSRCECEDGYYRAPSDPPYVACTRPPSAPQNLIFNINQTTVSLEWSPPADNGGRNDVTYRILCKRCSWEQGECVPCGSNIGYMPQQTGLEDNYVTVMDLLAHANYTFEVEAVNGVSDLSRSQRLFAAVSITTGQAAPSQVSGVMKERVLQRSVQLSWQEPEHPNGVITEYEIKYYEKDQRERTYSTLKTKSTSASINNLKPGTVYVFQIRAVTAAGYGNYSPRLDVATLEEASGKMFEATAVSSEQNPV

[1] = biological target: T7, human EphA4 (construct not given) (human, UniProt P54764 20-547, limits assumed); experiment: ELISA
T7 construct: also called EphA4 receptor
T7 sequence (P54764 20-547 limits assumed): as the sequence (Q03137 20-547 limits assumed) above, with A59P, S121N, G124V, Q250R, N251S, S270T, R378K, S406N counted along it

r murine EphA3 = biological target: T8, r murine EphA3 (mouse, UniProt P29319); experiment: activity ELISA, IgG on coated antigen
T8 construct: recombinant Fc fusion (R&D Systems); also called rmuEphA3-Fc; mEphA3
T8 sequence (receptor-Fc fusion, looked up): T5 sequence (receptor, looked up)
Description: (§1) Secondary screening of IgG constructs of affinity optimized combinatorial variants with additional EphA receptors: With purified IgG constructs of the nine combinatorial variants, additional secondary screening assays were performed using the Activity ELISA (see above) and recombinant EphA receptor proteins. More precisely, Nunc Maxisorp plates were coated with the following rEphA proteins: rhuEphAl-Fc; 0.5 μg/well, rmuEphA2-Fc; 0.5 μg/well, rmuEphA3-Fc: 0.1 μg/well, rmuEphA4-Fc; 0.1 μg/well, rratEphA5-Fc; 0.5 μg/well, rmuEphA6-Fc; 0.5 μg/well, rmuEphA7-Fc; 0.1 μg/well, rEphA8; 0.2 μg/well (all R&D Systems), rhuEphA2-Fc; 0.5 μg/well, and rhuEphA4-His; 0.1 μg/well (both produced at MedImmune, Inc.). Plates were blocked with 3% BSA+0.1% Tween20 for 2 h. […] Incubation with a goat anti-human kappa horseradish peroxydase (HRP) conjugate then followed. HRP activity was detected with TMB substrate and the reaction quenched with 0.2 M H₂SO₄. Plates were read at 450 nm. Data was analyzed by normalizing Fab concentrations to the corresponding activity data (see FIGS. 12A-12J and 14).

r murine EphA4 = biological target: T9, r murine EphA4 (mouse, UniProt Q03137); experiment: activity ELISA, IgG on coated antigen
T9 construct: recombinant Fc fusion (R&D Systems); also called rmuEphA4-Fc; mEphA4
T9 sequence (Q03137 20-547 limits assumed): as the sequence (Q03137 20-547 limits assumed) above
Description: as §1

r murine EphA7 = biological target: T10, r murine EphA7 (mouse, UniProt Q61772); experiment: activity ELISA, IgG on coated antigen
T10 construct: recombinant Fc fusion (R&D Systems); also called rmuEphA7-Fc; mEphA7
T10 sequence (receptor-Fc fusion, looked up): T6 sequence (receptor, looked up)
Description: as §1

[2] = biological target: T11, Human EphA4-His fusion protein (human, UniProt P54764 20-547); experiment: BIAcore, IgG immobilized on the sensor chip, EphA4-his as analyte
T11 construct: also called rhuEphA4-His; not shown: Histidine tag
T11 sequence (P54764 20-547): as the sequence (Q03137 20-547 limits assumed) above, with A59P, S121N, G124V, Q250R, N251S, S270T, R378K, S406N counted along it
Description: (§2) FIG. 15A-15B. […] Binding affinities were measured using the BIAcore assay. […] Variant kinetic measurements for human EphA4 and were obtained using BIAcore with immobilized variant antibodies and human EphA4-Fc and EphA4-His as analytes.

mEphA3 = biological target: T12, mEphA3 (mouse, UniProt P29319); experiment: ELISA, receptor coated on the plate, purified IgG, anti-human kappa-HRP
T12 construct: part of an Fc fusion; also called rmuEphA3-Fc
T12 sequence (receptor-Fc fusion, looked up): T5 sequence (receptor, looked up)
Description: as §1

mEphA4 = biological target: T13, mEphA4 (mouse, UniProt Q03137); experiment: as above
T13 construct: part of an Fc fusion; also called rmuEphA4-Fc
T13 sequence (Q03137 20-547 limits assumed): as the sequence (Q03137 20-547 limits assumed) above
Description: as §1

mEphA7 = biological target: T14, mEphA7 (mouse, UniProt Q61772); experiment: as above
T14 construct: part of an Fc fusion; also called rmuEphA7-Fc
T14 sequence (receptor-Fc fusion, looked up): T6 sequence (receptor, looked up)
Description: as §1

[3] = biological target: T15, Human EphA4-Fc fusion protein (human, UniProt P54764 20-547); experiment: BIAcore, IgG immobilized on the sensor chip, EphA4-Fc as analyte; koff and KD printed as ***, comment: off-rate below LOD
T15 construct: not shown: Fc portion of a human IgG1
T15 sequence (P54764 20-547): as the sequence (Q03137 20-547 limits assumed) above, with A59P, S121N, G124V, Q250R, N251S, S270T, R378K, S406N counted along it
Description: as §2

T1 sequence (P29317 25-534 limits assumed): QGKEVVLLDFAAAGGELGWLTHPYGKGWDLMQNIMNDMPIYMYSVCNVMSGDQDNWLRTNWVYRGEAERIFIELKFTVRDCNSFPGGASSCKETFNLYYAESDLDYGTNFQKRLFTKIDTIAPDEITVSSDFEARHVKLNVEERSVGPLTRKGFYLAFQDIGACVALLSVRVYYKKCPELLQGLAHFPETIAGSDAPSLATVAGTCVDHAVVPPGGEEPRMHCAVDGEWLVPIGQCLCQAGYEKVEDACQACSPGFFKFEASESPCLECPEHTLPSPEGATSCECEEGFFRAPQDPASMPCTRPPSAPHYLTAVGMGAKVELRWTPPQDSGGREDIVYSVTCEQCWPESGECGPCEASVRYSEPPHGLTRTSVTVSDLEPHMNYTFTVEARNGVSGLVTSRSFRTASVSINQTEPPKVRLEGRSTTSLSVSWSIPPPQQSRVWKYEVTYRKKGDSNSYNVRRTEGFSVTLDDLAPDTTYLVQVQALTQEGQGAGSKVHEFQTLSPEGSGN
mEph A2, sequence (Q03145 26-535 limits assumed): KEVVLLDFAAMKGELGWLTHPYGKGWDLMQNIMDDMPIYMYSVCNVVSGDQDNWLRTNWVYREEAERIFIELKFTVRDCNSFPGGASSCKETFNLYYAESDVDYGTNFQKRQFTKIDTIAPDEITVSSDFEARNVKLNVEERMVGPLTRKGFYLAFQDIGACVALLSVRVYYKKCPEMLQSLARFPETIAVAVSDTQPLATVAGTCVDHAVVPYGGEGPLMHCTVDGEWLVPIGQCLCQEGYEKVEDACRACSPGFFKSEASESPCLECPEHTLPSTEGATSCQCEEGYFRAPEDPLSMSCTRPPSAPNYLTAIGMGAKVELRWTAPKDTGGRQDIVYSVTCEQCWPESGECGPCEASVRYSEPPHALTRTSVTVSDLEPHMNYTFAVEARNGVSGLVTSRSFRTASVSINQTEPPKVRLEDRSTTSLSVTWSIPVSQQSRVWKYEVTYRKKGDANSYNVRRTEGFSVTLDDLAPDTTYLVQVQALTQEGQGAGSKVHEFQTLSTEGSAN

B1: human Anti-Eph Monoclonal Antibody GEA44 (antibody, V domains shown)
VH: QVQLLQSGAEVKKPGASVKVPCKASGYTFTSYAMSWVRQAPGQGLEWMGWINTNTGNPTYAQGFTGRFVFSLDTSVSTAYLQISSLKAEDTAVYYCARVRTTVYGDGMDVWGQGTLVTVSS
VL: EIVLTQSPATLSVSPGERATLSCRASQSVSSNLAWYQQKPGQAPRLLIYGASTRATGIPDRFSASGSGTDFTLTISRVEPEDFAVYYCQQYGSSWTFGQGTKVEIK
notes: also called mAb GEA44; parental mAb GEA44
ELISA O.D. value (hEphA2): 0.783
ELISA O.D. value (mEph A2): 0.792
binding result (rrEphB1): binds
ELISA O.D. value (rmEph B2): 0.535
binding result (rmEph B3): binds

B2: GEA10-C12 (antibody, V domains shown)
VH: QVQLQESGPGLVKPSGTLSLTCAVSGGSISSSNWWSWVRQPPGKGLEWIGEIYHSGSTNYNPSLKSRVTISVDKSKNQFSLKLSSVTAADTAVYYCARGGIAAAGYWGLGYNWFDPWGQGTLVTVSS
VL: QSVLTQPPSVSGAPGQRVTISCTGSSSNIGAGYDVHWYQQLPGTAPKLLIYGNSNRPSGVPDRFSGSKSGTSASLAITGLQAEDEADYYCQSYDNSLSGSVVFGGGTKLTVL
ELISA O.D. value (mEph A3): 0.116
ELISA O.D. value (mEph A4): 0.253
ELISA O.D. value (mEph A7): 0.132
ELISA O.D. value [1]: 0.267
ELISA O.D. value (rrEphB1): 0.823
ELISA O.D. value (rmEph B2): 0.264
ELISA O.D. value (rmEph B3): 0.377

B3: 6B7 IgG1 (affinity optimized combinatorial variant of mAb GEA44 in human IgG1 format) (antibody, V domains shown)
VH: B1 VH with Y32R, T101F
VL: B1 VL with L33P, S93P
binding result (r murine EphA3): binds
binding result (r murine EphA4): binds
binding result (r murine EphA7): binds
Kd [2]: 1.2 nM
koff [2]: 0.000353 s⁻¹
kon [2]: 295000 M⁻¹ s⁻¹
binding result (mEphA3): binds
binding result (mEphA4): binds
binding result (mEphA7): binds
kon [3]: 793000 M⁻¹ s⁻¹

B4: 3C6 IgG1 (affinity optimized combinatorial variant of mAb GEA44 in human IgG1 format) (antibody, V domains shown)
VH: B1 VH with Y32R, T101L
VL: B1 VL with L33P, A34P
binding result (r murine EphA4): binds
binding result (r murine EphA7): binds
binding result (mEphA4): binds
binding result (mEphA7): binds
kon [3]: 464000 M⁻¹ s⁻¹
